B1: HDV Ribozyme (parent)
chain: GGCCGGCAUGGUCCCAGCCUCCUCGCUGGCGCCGGCUGGGCAACAUUCCGAGGGGACCGUCCCCUCGGUAAUGGCGAAUGGGACCCA

Variants of: B1
Assay: self-cleavage, relative activity (ratio to wild type); higher = more cleavage; co-transcriptional
Variant GGCCGGCAUGGUCCCAGCCUCCUCGCUGGCGCCGGCUGGGCAACAGUCCGCGGGGACCGUCCCCUCGGUAAUGGCGAAUGGGACCCA has a self-cleavage of 0.755.
Work on GGCCGGCAUGGUCCCAGCCUCCUCGCUGGCGCCGGCUGGGCAACAGUCCGGGGGGACCGUCCCCUCGGUAAUGGCGAAUGGGACCCA yielded a self-cleavage of 0.739.
Work on GGCCGGCAUGGUCCCAGCCUCCUCGCUGGCGCCGGCUGGGCAACAGUCCGAGGGGAUCGUCCCCUCGGUAAUGGCGAAUGGGACCCA yielded a self-cleavage of 0.86.
GGCCGGCAUGGUCCCAGCCUCCUCGCUGGCGCCGGCUGGGCAACAGUCCGAGGGGAACGUCCCCUCGGUAAUGGCGAAUGGGACCCA gave a self-cleavage of 0.635.
With GGCCGGCAUGGUCCCAGCCUCCUCGCUGGCGCCGGCUGGGCAACAGUCCGAGGGGACCGUCCGCUCGGUAAUGGCGAAUGGGACCCA the self-cleavage was 0.293.
GGCCGGCAUGGUCCCAGCCUCCUCGCUGGCGCCGGCUGGGCAACAGUCCGAGGGGACCGUCCACUCGGUAAUGGCGAAUGGGACCCA gave a self-cleavage of 0.415.
With GGCCGGCAUGGUCCCAGCCUCCUCGCUGGCGCCGGCUGGGCAACAGUCCGAGGGCACCGUCCCCUCGGUAAUGGCGAAUGGGACCCA the self-cleavage was 0.98.
GGCCGGCAUGGUCCCAGCCUCCUCGCUGGCGCCGGCUGGGCAACAGUCCGAGGGAACCGUCCCCUCGGUAAUGGCGAAUGGGACCCA showed a self-cleavage of 0.649.
Variant GGCCGGCAUGGUCCCAGCCUCCUCGCUGGCGCCGGCUGGGCAACACUCCGAGGGGACCGUCCCCUCGGUAAUGGCGAAUGCGACCCA has a self-cleavage of 0.302.
Variant GGCCGGCAUGGUCCCAGCCUCCUCGCUGGCGCCGGCUGGGCAACAGUCCAAGGGGACCGUCCCCUCGGUAAUGGCGAAUGGGACCCA has a self-cleavage of 0.525.
GGCCGGCAUGGUCCCAGCCUCCUCGCUGGCGCCGGCUGGGCAACAGUCCUAGGGGACCGUCCCCUCGGUAAUGGCGAAUGGGACCCA showed a self-cleavage of 0.458.
Work on GGCCGGCAUGGUCCCAGCCUCCUCGCUGGCGCCGGCUGGGCAACAGUCCGAGGGGACCGUCCCCUCGUUAAUGGCGAAUGGGACCCA yielded a self-cleavage of 0.554.
GGCCGGCAUGGUCCCAGCCUCCUCGCUGGCGCCGGCUGGGCAACAGUCCGAGGGGACCGUCCCCUCGCUAAUGGCGAAUGGGACCCA showed a self-cleavage of 0.396.
For GGCCGGCAUGGUCCCAGCCUCCUCGCUGGCGCCGGCUGGGCAACACUCCGAGGGGACCGUCCCCUCGGCAAUGGCGAAUGGGACCCA, the self-cleavage was 1.12.
Variant GGCCGGCAUGGUCCCAGCCUCCUCGCUGGCGCCGGCUGGGCAACAGUCCGAGGGGACCGUCCCCUCGGUAAUGGCGAAUGGGACCCA has a self-cleavage of 0.793.
Work on GGCCGGCAUGGUCCCAGCCUCCUCGCUGGCGCCGGCUGGGCAACAGUCCGAGGGGACGGUCCCCUCGGUAAUGGCGAAUGGGACCCA yielded a self-cleavage of 0.89.
Variant GGCCGGCAUGGUCCCAGCCUCCUCGCUGGCGCCGGCUGGGCAACAGUCCGAGGGGCCCGUCCCCUCGGUAAUGGCGAAUGGGACCCA has a self-cleavage of 0.959.
In the case of GGCCGGCAUGGUCCCAGCCUCCUCGCUGGCGCCGGCUGGGCAACAGUCCGAGGGGACCGUCUCCUCGGUAAUGGCGAAUGGGACCCA, the self-cleavage is reported as 0.811.
Variant GGCCGGCAUGGUCCCAGCCUCCUCGCUGGCGCCGGCUGGGCAACAGUCCGAGGGGACCGUCCCCUCGGUAAUGGUGAAUGGGACCCA has a self-cleavage of 0.107.
GGCCGGCAUGGUCCCAGCCUCCUCGCUGGCGCCGGCUGGGCAACAGUCCGAGGGGACCGUCCCUUCGGUAAUGGCGAAUGGGACCCA showed a self-cleavage of 0.776.
GGCCGGCAUGGUCCCAGCCUCCUCGCUGGCGCCGGCUGGGCAACAGUCCGAGGGGACCGUCCCAUCGGUAAUGGCGAAUGGGACCCA gave a self-cleavage of 0.0831.
For GGCCGGCAUGGUCCCAGCCUCCUCGCUGGCGCCGGCUGGGCAACAGUCCGAGGGGACCGUCCCGUCGGUAAUGGCGAAUGGGACCCA, the self-cleavage was 0.525.
Variant GGCCGGCAUGGUCCCAGCCUCCUCGCUGGCGCCGGCUGGGCAACAGUCCGAGGGGACCGUCCCCUCGGUAAUGGCGAAUGGGAGCCA has a self-cleavage of 0.185.
Variant GGCCGGCAUGGUCCCAGCCUCCUCGCUGGCGCCGGCUGGGCAACAGUCCGAGGGGACCGUCCCCUCGGUAAUGGCGAAUGGGAUCCA has a self-cleavage of 0.287.
With GGCCGGCAUGGUCCCAGCCUCCUCGCUGGCGCCGGCUGGGCAACACUCCGAGGGGACCGUCCCCUCGGUAACGGCGAAUGGGACCCA the self-cleavage was 0.684.
GGCCGGCAUGGUCCCAGCCUCCUCGCUGGCGCCGGCUGGGCAACACUCCGAGGGGACCGUCCCCUCGGUAAAGGCGAAUGGGACCCA showed a self-cleavage of 0.504.
In the case of GGCCGGCAUGGUCCCAGCCUCCUCGCUGGCGCCGGCUGGGCAACACUCCGAGGGGACCGUCCCCUCGGUAAGGGCGAAUGGGACCCA, the self-cleavage is reported as 0.475.
For GGCCGGCAUGGUCCCAGCCUCCUCGCUGGCGCCGGCUGGGCAACAGUCCGAGGGGACCGUCCCCUCGGUAAUGGCGAAUGGGACCCG, the self-cleavage was 0.724.
GGCCGGCAUGGUCCCAGCCUCCUCGCUGGCGCCGGCUGGGCAACAGUCCGAGGGGACCGUCCCCUCGGUAGUGGCGAAUGGGACCCA gave a self-cleavage of 0.772.
GGCCGGCAUGGUCCCAGCCUCCUCGCUGGCGCCGGCUGGGCAACAGUCCGAGGGGACCGUCCCCUCGGUACUGGCGAAUGGGACCCA gave a self-cleavage of 0.982.
With GGCCGGCAUGGUCCCAGCCUCCUCGCUGGCGCCGGCUGGGCAACAGUCCGAGCGGACCGUCCCCUCGGUAAUGGCGAAUGGGACCCA the self-cleavage was 0.465.
For GGCCGGCAUGGUCCCAGCCUCCUCGCUGGCGCCGGCUGGGCAACAGUCCGAGGGGACCGUCCCCUCGGUAAUUGCGAAUGGGACCCA, the self-cleavage was 0.514.

Reference: the RNAGym collection of RNA variant scans (doi:10.7554/elife.80360)
